Source: patent publication US20140105889A1 (published 2014)
Residue numbers refer to the chain shown, from its start. Names may count otherwise. Blank lines part the entries; values can stand above or below the binder they belong to.

Legend:
human FcγRIIIa(F) = molecular target: T1, human FcγRIIIa(F) (human, UniProt P08637 17-208, limits assumed); assay: SPR (Biacore), antibody captured, FcγR as analyte
T1 construct: also called FcgRIIIaF; FcγRIIIa allotype F158
Description: Interaction between each modified antibody and Fcγ receptor prepared in the manner described above was analyzed using the Biacore T100 (GE Healthcare), Biacore T200 (GE Healthcare), Biacore A100 or Biacore 4000. HBS-EP+ (GE Healthcare) was used for the running buffer, and measurements were carried out at 25° C. The chips used were chips in which antigen peptides, Protein A (Thermo Scientific), Protein A/G (Thermo Scientific) or Protein L (ACTIGEN or BioVision) were immobilized on the Series S Sensor Chip CM5 (GE Healthcare) or Series S Sensor Chip CM4 (GE Healthcare) by amine coupling, or chips in which preliminarily biotinylated antigen peptides were allowed to interact and then immobilized on the Series S Sensor Chip SA (certified) (GE Healthcare). The target antibodies were captured on these sensor chips, Fcγ receptor diluted with the running buffer was allowed to interact, followed by measurement of the amount of bound antibody. The amounts bound were compared between antibodies. However, since the amount of Fcγ receptor bound depends on the amount of captured antibody, the values used for comparison were first corrected by dividing the amount of Fcγ receptor bound by the captured amount of each antibody. Through reaction with 10 mM glycine-HCl at pH 1.5, the sensor chips were regenerated by washing off antibody captured on the sensor chips and used repeatedly.
Binding strength was evaluated according to the following method based on the results of analyzing the interaction with each FcγR. […] That value was then further multiplied by 100, and the resulting value was used as an indicator of relative binding activity to each FcγR.

human FcγRIIa type H = molecular target: T2, human FcγRIIa type H (human, UniProt P12318 36-217); assay: SPR (Biacore), FcγR over captured antibody; binding amount / that of IL6R-BF648/IL6R-L x100
T2 construct: also called FcgRIIaH; FcγRIIa(H)
T2 sequence: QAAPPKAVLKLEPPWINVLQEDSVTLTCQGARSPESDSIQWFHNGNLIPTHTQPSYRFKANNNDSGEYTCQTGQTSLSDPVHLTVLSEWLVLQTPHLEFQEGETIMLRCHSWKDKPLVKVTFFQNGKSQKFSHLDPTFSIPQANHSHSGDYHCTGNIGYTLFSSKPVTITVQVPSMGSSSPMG
Description: (§1) According to the following method, relative binding activities were calculated for the results of analyzing interactions with the respective FcγRs.

human FcγRIIIa type V = molecular target: T3, human FcγRIIIa type V (human, UniProt P08637 17-208, limits assumed); assay: as above
T3 construct: Allotype V158 was used; also called FcgRIIIaV; FcγRIIIa(V)
T3 sequence (P08637 other isoform, or with tags, fused parts or gaps limits assumed): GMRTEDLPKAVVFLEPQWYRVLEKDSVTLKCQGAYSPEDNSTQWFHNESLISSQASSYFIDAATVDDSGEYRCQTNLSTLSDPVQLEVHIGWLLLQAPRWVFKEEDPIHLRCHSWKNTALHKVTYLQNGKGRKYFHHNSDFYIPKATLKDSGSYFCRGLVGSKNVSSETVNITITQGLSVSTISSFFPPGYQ
Description: as §1

human FcγRIa = molecular target: T4, human FcγRIa (human, UniProt P12314 16-292, limits assumed); assay: as above
T4 construct: also called FcgRIa; CD64
T4 sequence (P12314 16-292 limits assumed): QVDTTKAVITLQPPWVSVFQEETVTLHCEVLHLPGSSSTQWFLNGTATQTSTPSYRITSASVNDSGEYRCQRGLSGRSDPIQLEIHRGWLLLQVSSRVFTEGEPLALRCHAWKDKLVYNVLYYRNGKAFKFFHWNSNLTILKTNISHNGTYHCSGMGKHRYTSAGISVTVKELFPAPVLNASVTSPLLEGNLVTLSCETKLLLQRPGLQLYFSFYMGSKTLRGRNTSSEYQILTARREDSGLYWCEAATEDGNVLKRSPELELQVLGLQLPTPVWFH
Description: as §1

human FcγRIIb = molecular target: T5, human FcγRIIb (human, UniProt P31994 43-217); assay: as above
T5 construct: also called FcgRIIb; FcγIIB
T5 sequence: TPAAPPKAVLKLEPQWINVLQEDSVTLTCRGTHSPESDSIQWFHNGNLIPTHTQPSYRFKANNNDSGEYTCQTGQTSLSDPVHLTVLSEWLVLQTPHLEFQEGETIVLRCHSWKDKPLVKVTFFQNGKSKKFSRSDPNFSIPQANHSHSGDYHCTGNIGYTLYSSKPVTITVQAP
Description: as §1

human FcγRIIa type R = molecular target: T6, human FcγRIIa type R (human, UniProt P12318 36-217); assay: as above
T6 construct: also called FcgRIIaR; FcγRIIa(R)
T6 chain: T2 sequence with H133R
Description: as §1

T1 sequence (P08637 other isoform, or with tags, fused parts or gaps limits assumed): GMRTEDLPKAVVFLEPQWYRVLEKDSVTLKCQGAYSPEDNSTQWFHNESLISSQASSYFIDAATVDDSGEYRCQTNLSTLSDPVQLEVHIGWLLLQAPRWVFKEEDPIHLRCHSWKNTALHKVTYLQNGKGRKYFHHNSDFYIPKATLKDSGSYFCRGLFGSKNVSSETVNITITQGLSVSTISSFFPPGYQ

relative binding activity (amount bound / amount bound by GpH7-B3/GpL16-k0 x100) (human FcγRIIIa(F)): 11 % of GpH7-B3/GpL16-k0
B1: GpH7-B3 S298W / GpL16-k0 (antibody, human IgG1)
heavy: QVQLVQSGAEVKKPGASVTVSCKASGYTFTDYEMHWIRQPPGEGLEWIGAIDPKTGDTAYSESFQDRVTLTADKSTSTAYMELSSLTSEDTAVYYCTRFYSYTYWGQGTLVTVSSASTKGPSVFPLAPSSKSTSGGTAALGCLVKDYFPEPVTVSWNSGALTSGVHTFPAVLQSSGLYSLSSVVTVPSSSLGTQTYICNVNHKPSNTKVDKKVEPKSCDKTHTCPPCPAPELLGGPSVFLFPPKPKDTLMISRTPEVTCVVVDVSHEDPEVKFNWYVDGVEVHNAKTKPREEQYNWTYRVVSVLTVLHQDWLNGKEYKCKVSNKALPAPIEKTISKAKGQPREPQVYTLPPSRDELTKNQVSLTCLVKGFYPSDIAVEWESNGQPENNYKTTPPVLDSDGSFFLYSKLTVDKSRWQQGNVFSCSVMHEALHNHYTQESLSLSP
light: DIVMTQSPLSLPVTPGEPASISCQASESLVHSNRNTYLHWYLQKPGQSPQLLIYKVSNRFSGVPDRFSGSGSGTDFTLKISRVEAEDVGVYYCSQNTHVPPTFGQGTKVEIE
notes: B3 variant: anti-glypican-3 IgG1 (constant region B3 = G1d with K439E) with one substitution, EU numbering; also called B3 variant S298W; copies: 2 + 2

relative binding activity (amount bound / amount bound by GpH7-B3/GpL16-k0 x100) (human FcγRIIIa(F)): 71 % of GpH7-B3/GpL16-k0
B2: GpH7-B3 S298Y / GpL16-k0 (antibody, human IgG1)
heavy: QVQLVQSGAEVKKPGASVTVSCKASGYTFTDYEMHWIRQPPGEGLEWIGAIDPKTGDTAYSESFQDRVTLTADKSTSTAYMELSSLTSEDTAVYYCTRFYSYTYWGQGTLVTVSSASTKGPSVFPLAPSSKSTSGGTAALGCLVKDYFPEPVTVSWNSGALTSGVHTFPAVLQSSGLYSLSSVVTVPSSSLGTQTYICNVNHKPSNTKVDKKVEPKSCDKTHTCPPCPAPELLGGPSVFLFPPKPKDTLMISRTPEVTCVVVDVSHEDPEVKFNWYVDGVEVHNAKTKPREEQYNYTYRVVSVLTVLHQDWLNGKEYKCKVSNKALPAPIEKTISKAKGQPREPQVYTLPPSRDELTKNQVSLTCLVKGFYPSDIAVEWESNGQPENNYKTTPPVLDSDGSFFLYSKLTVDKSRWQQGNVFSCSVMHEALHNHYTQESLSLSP
light: B1 light
notes: B3 variant: anti-glypican-3 IgG1 (constant region B3 = G1d with K439E) with one substitution, EU numbering; also called B3 variant S298Y; copies: 2 + 2

relative binding activity (amount bound / amount bound by GpH7-B3/GpL16-k0 x100) (human FcγRIIIa(F)): 12 % of GpH7-B3/GpL16-k0
B3: GpH7-B3 Y300R / GpL16-k0 (antibody, human IgG1)
heavy: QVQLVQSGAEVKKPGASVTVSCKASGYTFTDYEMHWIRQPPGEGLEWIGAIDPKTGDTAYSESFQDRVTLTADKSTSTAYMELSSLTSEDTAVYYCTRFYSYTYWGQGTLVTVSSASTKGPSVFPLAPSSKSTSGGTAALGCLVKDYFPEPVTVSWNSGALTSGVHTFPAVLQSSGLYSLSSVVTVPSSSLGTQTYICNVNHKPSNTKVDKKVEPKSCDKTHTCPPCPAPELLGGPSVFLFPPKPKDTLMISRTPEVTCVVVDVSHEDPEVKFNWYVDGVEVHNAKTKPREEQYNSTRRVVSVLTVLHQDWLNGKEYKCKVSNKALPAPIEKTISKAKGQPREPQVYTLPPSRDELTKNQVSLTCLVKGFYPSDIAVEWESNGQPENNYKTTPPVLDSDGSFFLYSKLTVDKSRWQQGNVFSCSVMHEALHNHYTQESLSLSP
light: B1 light
notes: B3 variant: anti-glypican-3 IgG1 (constant region B3 = G1d with K439E) with one substitution, EU numbering; also called B3 variant Y300R; copies: 2 + 2

relative binding activity (amount bound / amount bound by GpH7-B3/GpL16-k0 x100) (human FcγRIIIa(F)): -1 % of GpH7-B3/GpL16-k0
B4: GpH7-B3 Y300P / GpL16-k0 (antibody, human IgG1)
heavy: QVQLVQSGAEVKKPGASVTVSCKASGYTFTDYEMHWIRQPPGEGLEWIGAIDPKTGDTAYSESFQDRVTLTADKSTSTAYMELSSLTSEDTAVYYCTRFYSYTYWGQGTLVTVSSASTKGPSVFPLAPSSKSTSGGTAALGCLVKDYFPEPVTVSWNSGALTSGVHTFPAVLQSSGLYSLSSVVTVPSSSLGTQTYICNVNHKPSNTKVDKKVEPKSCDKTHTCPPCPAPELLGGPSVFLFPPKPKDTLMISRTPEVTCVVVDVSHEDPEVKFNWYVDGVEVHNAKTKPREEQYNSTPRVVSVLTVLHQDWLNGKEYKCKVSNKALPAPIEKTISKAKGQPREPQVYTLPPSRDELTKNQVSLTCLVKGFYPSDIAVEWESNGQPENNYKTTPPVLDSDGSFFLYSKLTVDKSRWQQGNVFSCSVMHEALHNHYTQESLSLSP
light: B1 light
notes: B3 variant: anti-glypican-3 IgG1 (constant region B3 = G1d with K439E) with one substitution, EU numbering; also called B3 variant Y300P; copies: 2 + 2

relative binding activity (amount bound / amount bound by GpH7-B3/GpL16-k0 x100) (human FcγRIIIa(F)): 21 % of GpH7-B3/GpL16-k0
B5: GpH7-B3 Y296G / GpL16-k0 (antibody, human IgG1)
heavy: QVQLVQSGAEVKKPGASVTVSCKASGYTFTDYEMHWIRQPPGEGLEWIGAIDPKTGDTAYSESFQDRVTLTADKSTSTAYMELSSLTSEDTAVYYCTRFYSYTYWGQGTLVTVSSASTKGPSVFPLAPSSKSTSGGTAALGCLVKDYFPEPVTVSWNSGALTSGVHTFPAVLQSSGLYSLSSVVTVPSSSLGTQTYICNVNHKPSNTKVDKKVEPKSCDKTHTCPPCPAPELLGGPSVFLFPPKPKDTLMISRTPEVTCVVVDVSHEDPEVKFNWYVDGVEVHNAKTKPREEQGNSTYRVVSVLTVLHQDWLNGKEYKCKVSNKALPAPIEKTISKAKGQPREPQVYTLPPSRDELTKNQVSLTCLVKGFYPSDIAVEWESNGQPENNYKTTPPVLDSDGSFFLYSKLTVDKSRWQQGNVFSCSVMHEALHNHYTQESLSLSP
light: B1 light
notes: B3 variant: anti-glypican-3 IgG1 (constant region B3 = G1d with K439E) with one substitution, EU numbering; also called B3 variant Y296G; copies: 2 + 2

relative binding activity (amount bound / amount bound by GpH7-B3/GpL16-k0 x100) (human FcγRIIIa(F)): 21 % of GpH7-B3/GpL16-k0
B6: GpH7-B3 Y296K / GpL16-k0 (antibody, human IgG1)
heavy: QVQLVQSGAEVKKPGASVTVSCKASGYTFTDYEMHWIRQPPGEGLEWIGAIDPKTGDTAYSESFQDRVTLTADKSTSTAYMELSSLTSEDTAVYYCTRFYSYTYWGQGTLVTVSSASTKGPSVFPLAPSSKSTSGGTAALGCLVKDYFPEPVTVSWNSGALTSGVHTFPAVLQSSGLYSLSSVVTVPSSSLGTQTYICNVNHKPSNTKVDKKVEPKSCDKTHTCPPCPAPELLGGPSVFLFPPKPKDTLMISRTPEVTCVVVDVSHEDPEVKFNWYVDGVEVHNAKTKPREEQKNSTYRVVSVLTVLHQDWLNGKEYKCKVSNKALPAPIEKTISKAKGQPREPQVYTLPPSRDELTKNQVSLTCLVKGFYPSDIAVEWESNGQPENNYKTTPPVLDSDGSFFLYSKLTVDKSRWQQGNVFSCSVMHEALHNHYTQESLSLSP
light: B1 light
notes: B3 variant: anti-glypican-3 IgG1 (constant region B3 = G1d with K439E) with one substitution, EU numbering; also called B3 variant Y296K; copies: 2 + 2

relative binding activity (amount bound / amount bound by GpH7-B3/GpL16-k0 x100) (human FcγRIIIa(F)): 38 % of GpH7-B3/GpL16-k0
B7: GpH7-B3 Y296R / GpL16-k0 (antibody, human IgG1)
heavy: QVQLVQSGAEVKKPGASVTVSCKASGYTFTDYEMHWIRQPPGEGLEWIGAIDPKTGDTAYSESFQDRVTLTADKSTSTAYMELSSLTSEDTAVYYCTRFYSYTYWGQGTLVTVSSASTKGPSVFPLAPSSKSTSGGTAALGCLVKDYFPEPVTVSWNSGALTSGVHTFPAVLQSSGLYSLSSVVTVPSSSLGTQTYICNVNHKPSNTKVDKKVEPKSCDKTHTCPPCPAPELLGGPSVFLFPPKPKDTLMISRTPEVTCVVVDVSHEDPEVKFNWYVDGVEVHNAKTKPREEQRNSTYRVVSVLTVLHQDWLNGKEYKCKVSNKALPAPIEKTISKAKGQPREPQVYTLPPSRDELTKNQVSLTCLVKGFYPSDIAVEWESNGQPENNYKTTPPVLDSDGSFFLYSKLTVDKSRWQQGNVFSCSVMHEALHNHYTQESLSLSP
light: B1 light
notes: B3 variant: anti-glypican-3 IgG1 (constant region B3 = G1d with K439E) with one substitution, EU numbering; also called B3 variant Y296R; copies: 2 + 2

relative binding activity (human FcγRIIa type H): 106 % of IL6R-BF648/IL6R-L
relative binding activity (human FcγRIIIa type V): 87 % of IL6R-BF648/IL6R-L
relative binding activity (human FcγRIa): 74 % of IL6R-BF648/IL6R-L
relative binding activity (human FcγRIIb): 136 % of IL6R-BF648/IL6R-L
relative binding activity (human FcγRIIa type R): 126 % of IL6R-BF648/IL6R-L
B8: IL6R-BP082/IL6R-L (antibody, human IgG1)
heavy: QVQLQESGPGLVKPSETLSLTCAVSGHSISHDHAWSWVRQPPGEGLEWIGFISYSGITNYNPSLQGRVTISRDNSKNTLYLQMNSLRAEDTAVYYCARSLARTTAMDYWGEGTLVTVSSASTKGPSVFPLAPSSKSTSGGTAALGCLVKDYFPEPVTVSWNSGALTSGVHTFPAVLQSSGLYSLSSVVTVPSSSLGTQTYICNVNHKPSNTKVDKKVEPKSCDKTHTCPPCPAPDLLGGDSVFLFPPKPKDTLMISRTPEVTCVVVDVSHEDPEVKFNWYVDGVEVHNAKTKPREEQYNSTYRVVSVLTVLHQDWLNGKEYKCKVSNKALPKPIEKTISKAKGQPREPQVYTLPPSRDELTKNQVSLTCLVKGFYPSDIAVEWESNGQPENNYKTTPPVLDSDGSFFLYSKLTVDKSRWQQGNVFSCSVMHEALHNHYTQESLSLSP
light: DIQMTQSPSSLSASVGDRVTITCRASQDISSYLNWYQQKPGKAPKLLIYYTSRLHSGVPSRFSGSGSGTDFTFTISSLQPEDIATYYCQQGNTLPYTFGQGTKVEIK

relative binding activity (human FcγRIIa type H): 207 % of IL6R-BF648/IL6R-L
relative binding activity (human FcγRIIIa type V): 126 % of IL6R-BF648/IL6R-L
relative binding activity (human FcγRIa): 155 % of IL6R-BF648/IL6R-L
relative binding activity (human FcγRIIb): 156 % of IL6R-BF648/IL6R-L
relative binding activity (human FcγRIIa type R): 288 % of IL6R-BF648/IL6R-L
B9: IL6R-2B253/IL6R-L (antibody, human IgG1)
heavy: B8 heavy with V325M, K332A
light: B8 light

relative binding activity (human FcγRIIa type H): 150 % of IL6R-BF648/IL6R-L
relative binding activity (human FcγRIIIa type V): 122 % of IL6R-BF648/IL6R-L
relative binding activity (human FcγRIa): 108 % of IL6R-BF648/IL6R-L
relative binding activity (human FcγRIIa type R): 362 % of IL6R-BF648/IL6R-L
B10: IL6R-BP181/IL6R-L (antibody, human IgG1)
heavy: B8 heavy with P273G, K328A
light: B8 light

relative binding activity (human FcγRIIa type H): 203 % of IL6R-BF648/IL6R-L
relative binding activity (human FcγRIIb): 156 % of IL6R-BF648/IL6R-L
relative binding activity (human FcγRIIa type R): 445 % of IL6R-BF648/IL6R-L
B11: IL6R-BP146/IL6R-L (antibody, human IgG1)
heavy: B8 heavy with D235E, L236Y, G239D, K328A, K332A
light: B8 light

relative binding activity (human FcγRIIa type H): 224 % of IL6R-BF648/IL6R-L
relative binding activity (human FcγRIa): 104 % of IL6R-BF648/IL6R-L
relative binding activity (human FcγRIIa type R): 272 % of IL6R-BF648/IL6R-L
B12: IL6R-BP130/IL6R-L (antibody, human IgG1)
heavy: B8 heavy with V325M
light: B8 light
